# Laboratory results reported in patent US7220576B2, “Methods and compositions for protein expression and purification” (Lifesensors, Inc., priority 2002, dated 2007).
# “Also recorded” adds a separate entry of the source.
# T1: SUMO hydrolase Ulp1 (Saccharomyces cerevisiae, UniProt Q02724)
# T1 construct: C-terminal His-tagged SUMO hydrolase/protease Ulp (403–621)p (21) (27) was expressed from pET24d; His tag (C); made in house; host or cells: E. coli Rosetta (DE3) pLysS, vector pET24d
# T1 sequence (Q02724 403-621): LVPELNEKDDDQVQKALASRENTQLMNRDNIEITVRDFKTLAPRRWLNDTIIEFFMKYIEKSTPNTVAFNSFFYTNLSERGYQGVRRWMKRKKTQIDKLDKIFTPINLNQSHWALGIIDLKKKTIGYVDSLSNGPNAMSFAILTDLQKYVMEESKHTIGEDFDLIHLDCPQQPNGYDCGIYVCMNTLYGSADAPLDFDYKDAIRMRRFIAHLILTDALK
# T2: Ulp1 Hydrolase (Saccharomyces cerevisiae, UniProt Q02724)
# T2 construct: C-terminal His-tagged SUMO hydrolase/protease Ulp (403–621)p (21) (27) was expressed from pET24d; His tag (C); made in house; host or cells: E. coli Rosetta (DE3) pLysS, vector pET24d
# T2 sequence (Q02724 403-621): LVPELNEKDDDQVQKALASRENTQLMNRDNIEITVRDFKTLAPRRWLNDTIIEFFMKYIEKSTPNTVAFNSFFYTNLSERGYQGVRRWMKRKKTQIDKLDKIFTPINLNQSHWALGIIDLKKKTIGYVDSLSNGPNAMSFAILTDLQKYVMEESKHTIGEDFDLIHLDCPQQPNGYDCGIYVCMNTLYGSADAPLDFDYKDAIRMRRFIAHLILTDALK
# What was measured:
# E. coli [1] = assay: GFP fluorescence in soluble fractions of E. coli; type: cell-based; settings: 37° C., approx. 0.1 mg soluble protein, Ex 485 nm/Em 510 nm
# Experimental: GFP fluorescence was measured in soluble fractions (approx. 0.1 mg of soluble protein in a final volume of 40 μl) using Fluoroscan Accent FL fluorometer (LabSystems) with Excitation 485 nm/Emission 510 nm filter set with the exposure set to 40 sec. The data are presented in Arbitrary Units (AU).
# The design and construction of all the UBL E. coli expression vectors has been described above. The DNA sequences, accession numbers of the UBL-GFP fusion proteins, and translation frames are shown FIGS. 25–32. […] Un-fused GFP is generally poorly expressed in E. coli. […] Induced cells were broken by sonication and soluble proteins were analyzed on SDS-polyacrylamide gels. […] To determine if the fusion proteins were folded correctly, we determined the fluorescence properties of proteins in the soluble fraction.
# E. coli [2] = assay: Soluble versus insoluble fraction of fusion proteins expressed in E. coli; type: cell-based
# Experimental: E. coli were harvested by mild centrifugation and washed once with PBS buffer. Cells were resuspended in 4 ml of PBS and ruptured by several pulses of sonication. Unbroken cells were removed by mild centrifugation (5 min at 1500×g) and supernatants were sonicated again to ensure complete cell lysis. An aliquot (5 μl) was mixed with 2% SDS to ensure that no viscosity is detected owing to lysis of unbroken cells. After ensuring that no unbroken cells remained in the lysate, insoluble material consisting of cell walls, inclusion bodies and membrane fragments was sedimented by centrifugation (18,000×g for 10 min). The supernatant was considered “Soluble fraction”.
# The pellets were washed from any remaining soluble proteins, lipids and peptidoglycan as follows. Pellets were resuspended in 600 μl of PBS and to the suspensions 600 μl of solution containing 3 M urea and 1% Tri ton X100 was added. The suspension was briefly vortexed and insoluble material was collected by centrifugation as above. The PBS/Urea/Triton wash was repeated two more times to ensure complete removal of soluble proteins. The washed pellets, designated as “insoluble fraction,” consisted primarily of inclusion bodies formed by over expressed proteins. Approximately 10 μg of protein from each fraction was resolved on 12% SDS-PAGE minigels and stained with Coomassie Brilliant Blue.
# Human nuclear receptor proteins, such as steroid receptors, contain ligand-binding domains. These proteins have proven hard to express in soluble form in E. coli. […] The ligand-binding domain of LXR was expressed as SUMO fusion in Rosetta plysS cell at 20° C. or 37° C. and the pattern of soluble and insoluble protein was analyzed. […] Further proof that SUMO promotes solubility of previously insoluble proteins was gained by expressing MAPKAP2 kinase as a SUMO-fusion in E. coli. […] Numbers at the top of the gel, 0.1, 0.25 and 0.5 refer to the mM concentration of inducer IPTG, in the culture. The original induced culture (I), supernatant from lysed cells (S) and resuspended pellet (P) were analyzed on 12% SDS-PAGE. […] Although induction at 37° C. allows greater degree of expression, more than 50% of the kinase is still insoluble under these conditions. Cleavage of SUMO-MAPKKAP2 kinase by SUMO hydrolase is described in Example III. Also see FIG. 18.
# SUMO hydrolase Ulp1 = molecular target: T1, SUMO hydrolase Ulp1; assay: In vitro cleavage of purified SUMO fusion proteins by SUMO hydrolase Ulp1; type: biochemical, yeast; settings: for In vitro cleavage by Ulp1 / SUMO hydrolase: purified fusion protein from E. coli
# Ulp1 Hydrolase = molecular target: T2, Ulp1 Hydrolase; assay: In vitro Ulp1 cleavage of His6SUMO-GFP under various additives/conditions; type: biochemical, yeast; settings: 4 to 37° C.
# Experimental: Ni-NTA purified His6SUMO-GFP was incubated with Ulp1 under the indicated conditions for one hour at room temperature unless indicated otherwise. Low molecular weight markers (LMW) are also provided.
# Ni-NTA purified His6SUMO-GFP was incubated with Ulp1 and 10 mM of various protease inhibitors for 1 hour at room temperature. Lane markers: Norm is addition of Ulp1 and N-ethymaleimide (NEM) to the substrate at the same time, Pre is the incubation of Ulp1 with NEM prior to the addition of substrate, +Ve is the absence of any inhibitor, −Ve is in the absence of Ulp1, lane 1 is with E-64, lane 2 is with EDTA, lane 3 is with leupeptin, lane 4 is with NEM, lane 5 is with pepstatin, lane 6 is with TLCK. Low molecular weight markers (LMW) are also provided.
# The effects of various additives/conditions and temperature upon the in vitro cleavage reaction were determined as follows: His6smt3MeGFP was expressed from pET24d in Rosetta (DE3) pLysS (Novagen). The recombinant protein was purified as before using Ni-NTA agarose (Qiagen) and then buffer exchanged into 20 mM Tris-HCl pH 8.0, 150 mM NaCl and 5 mM β-mercaptoethanol using a PD-10 column (AP Biotech). […]
molecule,measurement,setting,value
Hub1-GFP (protein) MGHHHHHHGSDSEVNQEAKPEVKPEVKPETHINLKVSDGSSEIFFKIKKTTPLRRLMEAFAKRQGKEMDSLRFLYDGIRIQADQAPEDLDMEDNDIIEAHREQIGG,GFP fluorescence of soluble fraction (correct folding),E. coli [1],able to fluoresce
same,Solubility of UBL-GFP fusion (soluble panel of stained gel),"E. coli [2]; 37° C., FIG. 4A",able to solublize the GFP
SUMO-LXR: human liver X receptor ligand binding domain as SUMO fusion (SEQ ID NO: 25) (protein) MGHHHHHHGSDSEVNQEAKPEVKPEVKPETHINLKVSDGSSEIFFKIKKTTPLRRLMEAFAKRQGKEMDSLRFLYDGIRIQADQTPEDLDMEDNDIIEAHREQIGGMSLWLGAPVPDIPPDSAVELWKPGAQDASSQAQGGSSCILREEARMPHSAGGTAGVGLEAAEPTALLTRAEPPSEPTEIRPQKRKKGPAPKMLGNELCSVCGDKASGFHYNVLSCEGCKGFFRRSVIKGAHYICHSGGHCPMDTYMRRKCQECRLRKCRQAGMREECVLSEEQIRLKKLKRQEEEQAHATSLPPRRSSPPQILPQLSPEQLGMIEKLVAAQQQCNRRSFSDRLRVTPWPMAPDPHSREARQQRFAHFTELAIVSVQEIVDFAKQLPGFLQLSREDQIALLKTSAIEVMLLETSRRYNPGSESITFLKDFSYNREDFAKAGLQVEFINPIFEFSRAMNELQLNDAEFALLIAISIFSADRPNVQDQLQVERLQHTYVEALHAYVSIHHPHDRLMFPRMLMKLVSLRTLSSVHSEQVFALRLQDKKLPPLLSEIWDVHE,Fraction of protein solublized by SUMO fusion,E. coli [2]; induced at 20° C.,about 40%
same,Solubility of fusion protein,E. coli [2]; induced at 37° C.,hardly any SUMO-LXR was soluble
SUMO kinase: MAPKAP2 kinase expressed as a SUMO-fusion in E. coli (SEQ ID NO: 29) (protein) MGHHHHHHGSDSEVNQEAKPEVKPEVKPETHINLKVSDGSSEIFFKIKKTTPLRRLMEAFAKRQGKEMDSLRFLYDGIRIQADQTPEDLDMEDNDIIEAHREQIGGMQFHVKSGLQIKKNAIIDDYKVTSQVLGLGINGKVLQIFNKRTQEKFALKMLQDCPKARREVELHWRASQCPHIVRIVDVYENLYAGRKCLLIVMECLDGGELFSRIQDRGDQAFTEREASEIMKSIGEAIQYLHSINIAHRDVKPENLLYTSKRPNAILKLTDFGFAKETTSHNSLTTPCYTPYYVAPEVLGPEKYDKSCDMWSLGVIMYILLCGYPPFYSNHGLAISPGMKTRIRMGQYEFPNPEWSEVSEEVKMLIRNLLKTEPTQRMTITEFMNHPWIMQSTKVPQTPLHTSRVLKEDKERWEDVKEEMTSALATMRVDYEQIK,Soluble form as fusion to SUMO,E. coli [2]; as summarised in Example III for FIG. 8,95%
same,Soluble fraction of fusion protein,E. coli [2]; induced at 20° C. with 0.25 mM IPTG,90%
same,Insoluble fraction of fusion protein,E. coli [2]; induction at 37° C.,more than 50%
same,In vitro cleavage by Ulp1 / SUMO hydrolase,SUMO hydrolase Ulp1,efficiently cleaved
"Ulp1: C-terminal His-tagged yeast SUMO hydrolase/protease Ulp (403–621) expressed in E. coli (protein, UniProt Q02724 403-621, looked up, fragment, C-terminal His tag, C-terminal His-tagged yeast SUMO hydrolase/protease Ulp (403–621) expressed in E. coli) LVPELNEKDDDQVQKALASRENTQLMNRDNIEITVRDFKTLAPRRWLNDTIIEFFMKYIEKSTPNTVAFNSFFYTNLSERGYQGVRRWMKRKKTQIDKLDKIFTPINLNQSHWALGIIDLKKKTIGYVDSLSNGPNAMSFAILTDLQKYVMEESKHTIGEDFDLIHLDCPQQPNGYDCGIYVCMNTLYGSADAPLDFDYKDAIRMRRFIAHLILTDALK",Effect of temperature on Ulp1 hydrolase activity,Ulp1 Hydrolase,"extremely active at 37 °C as well as at 4 °C; also recorded: Ulp1 is active over a broad range of temperatures,"
β-GUS: SUMO fusion of 65 KDa E. coli β-glucuronidase (SEQ ID NO: 23) (protein) MGHHHHHHGSDSEVNQEAKPEVKPEVKPETHINLKVSDGSSEIFFKIKKTTPLRRLMEAFAKRQGKEMDSLRFLYDGIRIQADQTPEDLDMEDNDIIEAHREQIGGMEFMLRPVETPTREIKKLDGLWAFSLDRENCGIDQRWWESALQESRAIAVPGSFNDQFADADIRNYAGNVWYQREVFIPKGWAGQRIVLRFDAVTHYGKVWVNNQEVMEHQGGYTPFEADVTPYVIAGKSVRITVCVNNELNWQTIPPGMVITDENGKKKQSYFHDFFNYAGIHRSVMLYTTPNTWVDDITVVTHVAQDCNHASVDWQVVANGDVSVELRDADQQVVATGQGTSGTLQVVNPHLWQPGEGYLYELCVTAKSQTECDIYPLRVGIRSVAVKGQQFLINHKPFYFTGFGRHEDADLRGKGFDNVLMVHDHALMDWIGANSYRTSHYPYAEEMLDWADEHGIVVIDETAAVGFNLSLGIGFEAGNKPKELYSEEAVNGETQQAHLQAIKELIARDKNHPSVVMWSIANEPDTRPQVHGNISPLAEATRKLDPTRPITCVNVMFCDAHTDTISDLFDVLCLNRYYGWYVQSGDLETAEKVLEKELLAWQEKLHQPIIITEYGVDTLAGLHSMYTDMWSEEYQCAWLDMYHRVFDRVSAVVGEQVWNFADFATSQGILRVGGNKKGIFTRDRKPKSAAFLLQKRWTGMNFGEKPQQGGKQ,In vitro cleavage by SUMO hydrolase after addition of urea,"SUMO hydrolase Ulp1; 2M urea, 20 min at room temperature",complete cleavage
same,In vitro cleavage by Ulp1 / SUMO hydrolase,SUMO hydrolase Ulp1,partially resistant to cleavage
